Where two headings read alike, the source gives them in different places.
How the values were obtained:
[1] = tested on: CXA TALE SHD (Xanthomonas (engineered)?)
[2] = tested on: CXA TALE SNG (Xanthomonas (engineered)?)
[3] = tested on: CXA TALE SNI (pos 11-13) (Xanthomonas (engineered)?)
[4] = tested on: CXA TALE SNN (Xanthomonas (engineered)?)
[5] = tested on: TALE TL_TCAT AA-KD-KI-MG (Xanthomonas (engineered)?); details: ELISA
[6] = tested on: TALE TL_TCAT QG-AD-HI-KG (Xanthomonas (engineered)?); details: ELISA
[7] = tested on: TALE TL_TCAT QG-KD-KI-AA (Xanthomonas (engineered)?); details: ELISA
[8] = tested on: TALE TL_TCAT canonical (Xanthomonas (engineered)?); details: ELISA, AFU 204
[9] = tested on: TALE 101043-BfiI (Xanthomonas/Bacillus (engineered)?); experiment: cell_activity; details: paired with 101047-BfiI, K562
[10] = tested on: TALEN 101664 (R551-C17-KKR) (Xanthomonas (engineered)?); experiment: cell_activity; details: paired with 101662, 12 bp gap, K562
[11] = tested on: CXA TALE KAK S11K (repeat 5) (Xanthomonas (engineered)?)
[12] = tested on: CXA TALE SAK (Xanthomonas (engineered)?)
[13] = tested on: TALE 101042-BfiI (Xanthomonas/Bacillus (engineered)?); experiment: cell_activity; details: paired with 101047-BfiI, K562
[14] = tested on: TALE TR_ATAC CI-VA-HI-ND (Xanthomonas (engineered)?); details: ELISA; site composed
[15] = tested on: TALE TR_ATAC HI-VA-CI-ND (Xanthomonas (engineered)?); details: ELISA; site composed
[16] = tested on: TALE TR_ATAC KI-MG-HI-RD (Xanthomonas (engineered)?); details: ELISA; site composed
[17] = tested on: TALE 101047-BfiI (Xanthomonas/Bacillus (engineered)?); experiment: cell_activity; details: paired with 101043-BfiI, K562
[18] = tested on: TALEN 101047 (R) (Xanthomonas (engineered)?); experiment: cell_activity; details: paired with 101041, K562
[19] = tested on: TALEN 102109 (R*) (Xanthomonas (engineered)?); experiment: cell_activity; details: paired with 102204, K562
[20] = tested on: TALEN 3-1 (Xanthomonas (engineered)?); experiment: cell_activity; details: paired with 101041
[21] = tested on: TALEN 4-1 (Xanthomonas (engineered)?); experiment: cell_activity; details: paired with 101041
[22] = tested on: TALEN Condition 3 lane 8 (Xanthomonas (engineered)?); experiment: cell_activity; details: paired with 101041
[23] = tested on: TALEN Condition 4 lane 64 (Xanthomonas (engineered)?); experiment: cell_activity; details: paired with 101041
[24] = tested on: TALE TL_CTTC RD-RG-KG-AD (Xanthomonas (engineered)?); details: ELISA; site composed
[25] = tested on: TALE TL_CTTC RD-RG-MG-ND (Xanthomonas (engineered)?); details: ELISA; site composed
[26] = tested on: TALE TL_CTTC RD-RG-RG-KD (Xanthomonas (engineered)?); details: ELISA; site composed
[27] = tested on: CXA TALE KKD S11K (repeat 5) (Xanthomonas (engineered)?)
[28] = tested on: CXA TALE KRD S11K (repeat 5) (Xanthomonas (engineered)?)
[29] = tested on: CXA TALE KRI S11K (repeat 5) (Xanthomonas (engineered)?)
[30] = tested on: CXA TALE NRD S11N (repeat 5) (Xanthomonas (engineered)?)
[31] = tested on: CXA TALE SKD (Xanthomonas (engineered)?)
[32] = tested on: CXA TALE SRD (Xanthomonas (engineered)?)
[33] = tested on: CXA TALE SRI (Xanthomonas (engineered)?)
[34] = tested on: TALE 101048-BfiI (Xanthomonas/Bacillus (engineered)?); experiment: cell_activity; details: paired with 101043-BfiI, K562
[35] = tested on: TALE TR_CAGA AD-HI-GN-HI (Xanthomonas (engineered)?); details: ELISA; site composed
[36] = tested on: TALE TR_CAGA KD-HI-FN-HI (Xanthomonas (engineered)?); details: ELISA; site composed
[37] = tested on: TALE TR_CAGA ND-HI-HN-KI (Xanthomonas (engineered)?); details: ELISA; site composed
[38] = tested on: TALE TR_CCTG AD-RD-HG-HN (Xanthomonas (engineered)?); details: ELISA; site composed
[39] = tested on: TALE TR_CCTG ND-KD-HG-HN (Xanthomonas (engineered)?); details: ELISA; site composed
[40] = tested on: TALE TR_CCTG RD-ND-AA-HN (Xanthomonas (engineered)?); details: ELISA; site composed
[41] = tested on: TALE TR_CCTG canonical (Xanthomonas (engineered)?); details: ELISA, AFU 1020; site composed
[42] = tested on: TALEN 1-1 (Xanthomonas (engineered)?); experiment: cell_activity; details: paired with 101047
[43] = tested on: TALEN 101041 (L) (Xanthomonas (engineered)?); experiment: cell_activity; details: paired with 101047, K562
[44] = tested on: TALEN 101662 (L538-C17-ELD) (Xanthomonas (engineered)?); experiment: cell_activity; details: paired with 101664, 12 bp gap, K562
[45] = tested on: TALEN 102204 (L*) (Xanthomonas (engineered)?); experiment: cell_activity; details: paired with 102109, K562
[46] = tested on: TALEN 102297 (L538NC-C17-ELD) (Xanthomonas (engineered)?); experiment: cell_activity; details: paired with 101664, 12 bp gap, K562
[47] = tested on: TALEN 2-1 (Xanthomonas (engineered)?); experiment: cell_activity; details: paired with 101047
[48] = tested on: TALEN Condition 1 lane 40 (Xanthomonas (engineered)?); experiment: cell_activity; details: paired with 101047
[49] = tested on: TALEN Condition 2 lane 45 (Xanthomonas (engineered)?); experiment: cell_activity; details: paired with 101047
[50] = tested on: TALE TR_TACA KG-KI-KD-CI (Xanthomonas (engineered)?); details: ELISA; site composed
[51] = tested on: TALE TR_TACA RG-HI-RD-KI (Xanthomonas (engineered)?); details: ELISA; full site composed from anchor + subsite
[52] = tested on: TALE TR_TACA VA-CI-ND-HI (Xanthomonas (engineered)?); details: ELISA; full site composed from anchor + subsite
[53] = tested on: TALE TR_TACA canonical (Xanthomonas (engineered)?); details: ELISA, AFU 779; site composed
[54] = tested on: TALE TR_CAGC ND-KI-FN-AD (Xanthomonas (engineered)?); details: ELISA
[55] = tested on: TALE TR_CAGC RD-HI-GN-ND (Xanthomonas (engineered)?); details: ELISA
[56] = tested on: TALE TR_CAGC RD-HI-HN-ND (Xanthomonas (engineered)?); details: ELISA
[57] = tested on: TALE TR_CAGC canonical (Xanthomonas (engineered)?); details: ELISA, AFU 649
[58] = tested on: TALE TR_ATTG CI-KG-QG-HN (Xanthomonas (engineered)?); details: ELISA; site composed
[59] = tested on: TALE TR_ATTG CI-MG-KG-HN (Xanthomonas (engineered)?); details: ELISA; site composed
[60] = tested on: TALE TR_ATTG HI-RG-MG-HN (Xanthomonas (engineered)?); details: ELISA; site composed
[61] = tested on: CXA TALE NRI S11N (repeat 5) (Xanthomonas (engineered)?)
[62] = tested on: TALEN 101238 (Xanthomonas (engineered)?); experiment: cell_activity; details: paired with 101236, K562
[63] = tested on: TALEN 101238a (Xanthomonas (engineered)?); experiment: cell_activity; details: paired with 101236, K562; SELEX preference improved
[64] = tested on: TALEN 101238b (Xanthomonas (engineered)?); experiment: cell_activity; details: paired with 101236, K562; SELEX preference improved
[65] = tested on: TALEN 101238c (Xanthomonas (engineered)?); experiment: cell_activity; details: paired with 101236, K562; SELEX preference improved
[66] = tested on: TALEN 101238d (Xanthomonas (engineered)?); experiment: cell_activity; details: paired with 101236, K562
[67] = tested on: TALEN 101238e (Xanthomonas (engineered)?); experiment: cell_activity; details: paired with 101236, K562; SELEX not interpretable

TTGACTATCCT (double strand) [CTA target]
binding signal (normalized ELISA) [1]: 0.12 | binding signal (normalized ELISA) [2]: 0.99 | binding signal (normalized ELISA) [3]: 0.02 | binding signal (normalized ELISA) [4]: 0.03

TTCATATCCT (double strand) [TL TCAT target]
binding signal (fold vs canonical) [5]: 0.05 | binding signal (fold vs canonical) [6]: 2.26 | binding signal (fold vs canonical) [7]: 2.34 | binding signal (fold vs canonical) [8]: 1

TACACCTGCAGCTCTCAT (double strand) [101043 half-site]
activity [9]: 0.75 % indels

TGATACTGACTGT (double strand) [CCR5 R551 half-site]
activity [10]: 59 % NHEJ

TTGACGATCCT (double strand) [CGA target]
binding signal (normalized ELISA) [11]: 0.28 | binding signal (normalized ELISA) [12]: 0.21 | binding signal (normalized ELISA) [1]: 0.01 | binding signal (normalized ELISA) [2]: 0.11 | binding signal (normalized ELISA) [3]: 0.01 | binding signal (normalized ELISA) [4]: 0.76

TACACCTGCAGCTCT (double strand) [101042 half-site]
activity [13]: 0.11 % indels

TTGACATACT (double strand) [TR ATAC target]
binding signal (fold vs canonical) [14]: 1.4 | binding signal (fold vs canonical) [15]: 1.36 | binding signal (fold vs canonical) [16]: 0.47

TCTTCCAGAATTGATACT (double strand) [CCR5 R557 half-site]
activity [17]: 0.75 % indels | activity [18]: 50.6 % indels | activity [19]: 65.2 % indels | activity [20]: 56.3 % NHEJ | activity [21]: 59.5 % NHEJ | activity [22]: 0 % NHEJ | activity [23]: 0 % NHEJ

TCTTCATCCT (double strand) [TL CTTC target]
binding signal (fold vs canonical) [24]: 8.22 | binding signal (fold vs canonical) [25]: 0.16 | binding signal (fold vs canonical) [26]: 13.8

TTGACCATCCT (double strand) [CCA target]
binding signal (normalized ELISA) [27]: 0.64 | binding signal (normalized ELISA) [28]: 0.85 | binding signal (normalized ELISA) [29]: 0.28 | binding signal (normalized ELISA) [30]: 0.53 | binding signal (normalized ELISA) [1]: 1.29 | binding signal (normalized ELISA) [31]: 0.5 | binding signal (normalized ELISA) [2]: 0.15 | binding signal (normalized ELISA) [3]: 0.06 | binding signal (normalized ELISA) [4]: 0.01 | binding signal (normalized ELISA) [32]: 0.91 | binding signal (normalized ELISA) [33]: 0.04

TTCTTCCAGAATTGAT (double strand) [101048 half-site]
activity [34]: 0.27 % indels

TTGACCAGAT (double strand) [TR CAGA target]
binding signal (fold vs canonical) [35]: 0.04 | binding signal (fold vs canonical) [36]: 1.3 | binding signal (fold vs canonical) [37]: 1.28

TTGACCCTGT (double strand) [TR CCTG target]
binding signal (fold vs canonical) [38]: 1.3 | binding signal (fold vs canonical) [39]: 1.07 | binding signal (fold vs canonical) [40]: 0.02 | binding signal (fold vs canonical) [41]: 1

TTCATTACACCTGCAGCT (double strand) [CCR5 L538 half-site]
activity [42]: 36.6 % NHEJ | activity [43]: 50.6 % indels | activity [44]: 59 % NHEJ | activity [45]: 65.2 % indels | activity [46]: 56.2 % NHEJ | activity [47]: 64.1 % NHEJ | activity [48]: 0 % NHEJ | activity [49]: 0 % NHEJ

TTGACTACAT (double strand) [TR TACA target]
binding signal (fold vs canonical) [50]: 0.48 | binding signal (fold vs canonical) [51]: 1.62 | binding signal (fold vs canonical) [52]: 1.57 | binding signal (fold vs canonical) [53]: 1

TTGACCAGCT (double strand) [TR CAGC target]
binding signal (fold vs canonical) [54]: 0 | binding signal (fold vs canonical) [55]: 0.4 | binding signal (fold vs canonical) [56]: 1.52 | binding signal (fold vs canonical) [57]: 1

TTGACATTGT (double strand) [TR ATTG target]
binding signal (fold vs canonical) [58]: 1.12 | binding signal (fold vs canonical) [59]: 1.22 | binding signal (fold vs canonical) [60]: 0

TTGACAATCCT (double strand) [CAA target]
binding signal (normalized ELISA) [11]: 0.05 | binding signal (normalized ELISA) [27]: 0.25 | binding signal (normalized ELISA) [28]: 0.48 | binding signal (normalized ELISA) [29]: 0.74 | binding signal (normalized ELISA) [30]: 0.07 | binding signal (normalized ELISA) [61]: 0 | binding signal (normalized ELISA) [12]: 0.01 | binding signal (normalized ELISA) [1]: 0.38 | binding signal (normalized ELISA) [31]: 0.14 | binding signal (normalized ELISA) [2]: 0.63 | binding signal (normalized ELISA) ([3]; flanking RVDs inferred from anchors): 0.96 | binding signal (normalized ELISA) [4]: 1.12 | binding signal (normalized ELISA) [32]: 0.26 | binding signal (normalized ELISA) [33]: 0.51

PITX3 target of 101238
activity [62]: 34 % indels | activity [63]: 54 % indels | activity [64]: 50 % indels | activity [65]: 44 % indels | activity [66]: 43 % indels | activity [67]: 22 % indels

Source: patent US20130196373
